Measured values as given in patent US20140179547A1 (NOVIMMUNE S A, published 2014).
Blank lines part the entries; values can stand above or below the binder they belong to.

Legend:
[1] = target: T1, human interferon gamma (hIFNγ) (human, UniProt P01579 24-166, limits assumed); assay: SPR (Biacore), INFγ immobilised, IgG injected
T1 construct: also called INFγ
T1 sequence (looked up): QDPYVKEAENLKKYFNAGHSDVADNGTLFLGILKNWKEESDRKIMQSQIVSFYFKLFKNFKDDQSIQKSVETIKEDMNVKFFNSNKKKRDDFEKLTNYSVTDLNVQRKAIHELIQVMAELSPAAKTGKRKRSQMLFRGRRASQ
Method: (§1) FIGS. 12A and 12B are a series of illustrations and graphs depicting SPR analysis of IgGκλ bispecific antibodies. In FIG. 12A, INFγ was immobilized at the surface of the Biacore chip and anti-IL6RC monospecific antibody ([…]), anti-INFγ monospecific antibody (IgGλ) and, anti-IL6RC/anti-INFγ bispecific antibody (IgGκλ) were injected on the surface followed by injection of IL6RC. In FIG. 12B, the anti-IL6RC/anti-INFγ bispecific antibody (IgGκλ) was immobilized on the chip surface and anti human-Kappa and anti-human Lambda antibodies were injected at the same concentration. The experiment was repeated inverting the order of antibody injection with identical results.
(§2) The capacity of the bispecific IgGκλ to interact with both targets simultaneously was tested by SPR. Biotinylated INFγ was immobilized on streptavidin coating CM5 Biacore chip. The monospecific and the bispecific antibodies were injected on this surface followed by injection of IL6RC. […] SPR was also used to assess the relative amounts of Kappa and Lambda light chains in the purified bispecific antibody. IgGκλ was directly immobilized via amine coupling on the surface of a CM5 Biacore chip and an anti-human CKappa antibody was injected followed by an anti-human CLambda antibody at the same concentration.

[2] = target: T2, hIL6 Receptor Complex (IL-6/IL-6R receptor complex) (human, UniProt P08887 20-358; P05231 30-212, limits assumed); assay: SPR (Biacore), INFγ immobilised, IgGλ injected, then IL6RC injected
T2 construct: also called IL6RC; hIL6RC
Method: as §1, §2

[3] = target: T1, human interferon gamma (hIFNγ); assay: SPR, Biacore 2000, IgG captured on anti-human IgG, antigen as analyte, 1:1 Langmuir fit
Method: The affinity and binding kinetics of monospecific anti-INFγ IgGλ, the anti-IL6RC IgGκ and the bispecific IgGκλ antibodies were characterized on a Biacore 2000 instrument (Biacore AB, Uppsala, Sweden). 200RU of a goat anti-human polyclonal IgG (ahIgG; Biacore) were immobilized by EDC/NHS chemistry on a CM5 Biacore chip. This surface was used to capture monospecific or bispecific human IgG. The surface was regenerated after each cycle by injection of 10 mM glycine pH=1.5 at 30 μL/min, for 30 s followed by 1 min of stabilization time in HBS-EP buffer. […] Similar affinity values were obtained for the monospecific antibodies and the bispecific IgGκλ antibodies.

binding result [1]: no binding
B1: monospecific anti-IL6RC IgGκ antibody (antibody, V domains shown)
VH: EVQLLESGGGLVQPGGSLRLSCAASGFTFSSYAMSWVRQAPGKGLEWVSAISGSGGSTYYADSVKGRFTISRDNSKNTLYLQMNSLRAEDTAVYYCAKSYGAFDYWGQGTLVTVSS
VL: EIVLTQSPATLSLSPGERATLSCRASQSVSSYLAWYQQKPGQAPRLLIYDASNRATGIPARFSGSGSGTDFTLTISSLEPEDFAVYYCQQWLPTTPATFGQGTKVEIKR
notes: also called IgGκκ; mono κ

binding result [2]: no binding
Kd [3]: 0.196 nM
koff [3]: 0.000119 s⁻¹
kon [3]: 608000 M⁻¹ s⁻¹
B2: monospecific anti-INFγ IgGλ antibody (antibody, V domains shown)
VH: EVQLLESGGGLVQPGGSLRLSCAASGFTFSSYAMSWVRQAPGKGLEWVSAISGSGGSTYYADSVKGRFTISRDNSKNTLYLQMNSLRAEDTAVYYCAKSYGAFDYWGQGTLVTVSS
VL: NFMLTQPHSVSESPGKTVTISCTRSSGSIASNYVQWYQQRPGSSPTTVIYEDNQRPSGVPDRFSGSIDSSSNSASLTISGLKTEDEADYYCQSQSWDGNHIVFGGGTKLTVLG
notes: also called IgGλλ; mono λ

Kd [3]: 0.184 nM
koff [3]: 0.000169 s⁻¹
kon [3]: 919000 M⁻¹ s⁻¹
B3: anti-IL6RC/anti-INFγ bispecific IgGκλ antibody (bispecific antibody)
heavy: not shown
light 1: not shown
light 2: NFMLTQPHSVSESPGKTVTISCTRSSGSIASNYVQWYQQRPGSSPTTVIYEDNQRPSGVPDRFSGSIDSSSNSASLTISGLKTEDEADYYCQSQSWDGNHIVFGGGTKLTVLGQPKAAPSVTLFPPSSEELQANKATLVCLISDFYPGAVTVAWKADSSPVKAGVETTTPSKQSNNKYAASSYLSLTPEQWKSHRSYSCQVTHEGSTVEKTVAPTECS
notes: also called κλ-body; κλ body
